The test deals with HLA-A*33:03. The experiment in a line: IEDB peptide-MHC binding, purified MHC/competitive/fluorescence; filed as Kd, often an IC50 or EC50 that approximates it; ≥ and ≤ were set here for values at or beyond the usual limits of such assays. The conditions noted are these: source organism: Homo sapiens.

What is called Kd is the free concentration of one partner at which half of the binding sites on the other are occupied at equilibrium, for simple one-to-one binding. Low readings indicate a tighter complex, high ones a looser complex. In turn, DTYLHRVAR registered a Kd of 2.19 nM.
Turning to MTILQTYFR, the Kd worked out at 3.19 nM.
ETYKYLYGR gave a Kd of 1.79 nM.
In the case of ETVERIFRR it was 1.77 nM.
Take STARHLYLR: the Kd amounted to 0.92 nM.
The same measure for EFFSINAQR: 0.28 nM; for EFVDLYVPR: 5.11 nM; for SYIDRLAPR: 1.43 nM.
In turn, ETYLHRIGR came in with a Kd of 1.69 nM.
In the case of ELFDFLHAR it was 1.68 nM; in that of MLYGLIHAR, 3.45 nM.
With DIYNHRFHR, the Kd was 2.4 nM.
EFQDFTVPR displayed a Kd of 1.78 nM.
Consider ETMPSPYGR, for which the Kd was determined as 3.1 nM.
On to TTTEHRFFR, for which the dissociation constant (Kd) turned out to be 1.99 nM.
In the case of NTLQLHRYR it was 3.4 nM; in that of FTWNINHAR, 3.22 nM.
YVQRFHYSR had an equilibrium dissociation constant (Kd) of 1.37 nM.
YVFPKPFNR: the Kd amounted to 1.43 nM.
In the case of ETFPQRHMR it was 3.14 nM; in that of EVFEYIIFR, 4.69 nM.
Take DVFPGPSFR: the Kd was 2.18 nM.
In turn, QLYPRNFLR showed a Kd of 3.85 nM.
With EVKESPFFR, the Kd amounted to 3.63 nM.
Consider VVAAVRWRR, for which the Kd turned out to be 3.64 nM.
EVINDYHFR showed an equilibrium dissociation constant (Kd) of 5.33 nM.
In the case of EVASVWVER it was 11.5 nM; in that of DAQRLHYYR, 1.37 nM; in that of NTNDFVTLR, 4.87 nM.
In the case of EVYDIAFSR, the Kd was determined as 1.29 nM.
Sequence EFFIPRVGR yielded a Kd of 1.47 nM.
The sequence FVFDRPVHR registered a Kd of 0.95 nM.
For ETHFPFAIR, the Kd stood at 2.11 nM.
